Measurements reported in paper PMC7044312, “NMT1 and NMT2 are lysine myristoyltransferases regulating the ARF6 GTPase cycle” (Nature Communications, 2020).
No end group written: not given here.

Molecular target: T1, NMT1 (115–496), NMT catalytic domain (human, UniProt P30419 115-496)
T1 construct: human N-myristoyltransferase 1, catalytic domain, residues 115-496; Crystallised with myristoyl-CoA; also called N-myristoyltransferase 1; source: E. coli BL21, purified (Ni-NTA, PreScission cleavage, Superdex 75)
T1 sequence (looked up): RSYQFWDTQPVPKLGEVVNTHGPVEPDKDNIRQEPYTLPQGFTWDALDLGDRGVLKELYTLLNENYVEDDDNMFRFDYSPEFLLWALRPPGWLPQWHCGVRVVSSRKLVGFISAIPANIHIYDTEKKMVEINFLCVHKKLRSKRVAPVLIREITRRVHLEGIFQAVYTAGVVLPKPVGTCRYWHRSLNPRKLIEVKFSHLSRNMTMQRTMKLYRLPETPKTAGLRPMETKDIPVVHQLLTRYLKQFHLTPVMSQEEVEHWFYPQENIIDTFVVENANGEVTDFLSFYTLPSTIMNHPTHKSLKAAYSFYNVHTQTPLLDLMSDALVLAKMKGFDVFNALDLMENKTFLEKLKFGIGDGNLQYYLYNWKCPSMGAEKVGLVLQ
Assay: crystal structure; NMT1 7.5 mg/ml in 25 mM Tris-HCl pH 7.5, 120 mM NaCl, with 0.3 mM myristoyl-CoA and 0.3 mM AcKVLSKIF; well 18% PEG 8000, 100 mM NaCl, 100 mM sodium citrate pH 5.6, 100 mM MgCl2
Conditions: both partners purified

B1: Ac-KVLSKIF peptide (peptide)
peptide: Ac-KVLSKIF
modifications: also: myristoyl on Lys3 side chain (residue 3 is L), formed in crystal
notes: derived from the N-terminus of ARF6, G2 deleted; also called acetyl-KVLSKIF; myristoyl-AcKVLSKIF; source: synthetic peptide (synthesized in-house)
- binding result: binds
